{"source": "patent US20090136547A1", "about": "“ZWITTERIONIZATION OF CAPSULAR SACCHARIDES” (NOVARTIS VACCINES AND DIAGNOSTICS SRL, priority 2005, published 2009)", "molecular_target": "T1, TLR2 receptor (Homo sapiens, UniProt O60603)", "T1 construct": "endogenous in cells; host or cells: purified monocytes", "T1 sequence (O60603 21-784)": "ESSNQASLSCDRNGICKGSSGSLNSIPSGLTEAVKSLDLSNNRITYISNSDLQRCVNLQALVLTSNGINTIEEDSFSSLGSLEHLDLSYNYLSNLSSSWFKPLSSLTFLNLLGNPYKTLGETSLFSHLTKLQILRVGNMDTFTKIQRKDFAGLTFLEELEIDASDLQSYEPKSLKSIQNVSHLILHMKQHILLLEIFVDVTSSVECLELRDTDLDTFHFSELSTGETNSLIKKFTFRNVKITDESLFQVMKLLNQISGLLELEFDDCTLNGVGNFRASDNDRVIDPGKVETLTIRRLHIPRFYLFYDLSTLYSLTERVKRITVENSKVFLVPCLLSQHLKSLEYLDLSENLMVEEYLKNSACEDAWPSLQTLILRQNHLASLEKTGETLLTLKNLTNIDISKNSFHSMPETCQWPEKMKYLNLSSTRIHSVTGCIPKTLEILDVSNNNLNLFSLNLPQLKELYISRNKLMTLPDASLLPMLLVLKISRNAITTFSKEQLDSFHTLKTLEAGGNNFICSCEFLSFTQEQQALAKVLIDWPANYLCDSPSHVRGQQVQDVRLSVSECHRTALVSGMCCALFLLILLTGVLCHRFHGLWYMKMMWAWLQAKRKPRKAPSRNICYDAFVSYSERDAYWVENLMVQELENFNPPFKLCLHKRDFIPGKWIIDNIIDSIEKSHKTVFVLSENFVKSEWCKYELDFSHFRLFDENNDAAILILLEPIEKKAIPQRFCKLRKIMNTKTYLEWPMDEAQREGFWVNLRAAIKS", "assay": "Monocyte activation (TNFα, CD80/MHC-II) in absence or presence of anti-TLR2 antibody", "type": "cell-based", "conditions": "FIG. 29 and FIG. 30", "note": "Ends that are not written are not given here. * marks the point of attachment. Palmitoyl = CCCCCCCCCCCCCCCC(=O)*"}
{"substance": "N-palmitoyl-S-[2,3-bis(palmitoyloxy)-(2R,S)-propyl]-(R)-cysteinyl-seryl-(lysyl)(3)-lysine (Palmitoyl-C(2,3‑bis(palmitoyloxy)‑(2R,S)‑propyl)SKKKK) [PAMcsk, synthetic lipopeptide positive control]", "values": [{"measurement": "effect of anti-TLR2 antibody on activation (TNFα assay, CD80/MHC-II assay)", "result": "able to block activation"}]}
